{"source": "patent US11124558B2", "about": "“Use of tetranectin and peptide agonists to treat inflammatory diseases” (The Feinstein Institutes for Medical Research, priority 2017, dated 2021)", "key": {"[1]": {"tested_on": "GRO/CXCL1 and ENA-78/CXCL5 secretion, HuPBMCs", "assay": "Cytokine/chemokine secretion by HuPBMCs (Cytokine Antibody Arrays)", "format": "cell-based", "details": "primary human monocytes / HuPBMCs, TN 20 μg/ml, 16 h", "description": "Human blood was purchased from the Long Island Blood Bank, and HuPBMCs were isolated by density gradient centrifugation through Ficoll, and stimulated with recombinant TN (20 μg/ml) expressed in HEK293 or E. coli for 16 h. The extracellular levels of cytokines and chemokines were determined by Cytokine Antibody Arrays.\nIn light of the protective roles of these neutrophil-attracting chemokines, CXCL1/KC [67,68] and CXCL5/ENA-78 [69,70] in LSI, it is important to determine whether TN could modulate leukocyte infiltration to facilitate potential pathogen elimination during sepsis."}, "plasminogen (PLMG)": {"biological_target": "plasminogen (PLMG) (Homo sapiens, UniProt P00747)", "sequence (P00747 20-810 limits assumed)": "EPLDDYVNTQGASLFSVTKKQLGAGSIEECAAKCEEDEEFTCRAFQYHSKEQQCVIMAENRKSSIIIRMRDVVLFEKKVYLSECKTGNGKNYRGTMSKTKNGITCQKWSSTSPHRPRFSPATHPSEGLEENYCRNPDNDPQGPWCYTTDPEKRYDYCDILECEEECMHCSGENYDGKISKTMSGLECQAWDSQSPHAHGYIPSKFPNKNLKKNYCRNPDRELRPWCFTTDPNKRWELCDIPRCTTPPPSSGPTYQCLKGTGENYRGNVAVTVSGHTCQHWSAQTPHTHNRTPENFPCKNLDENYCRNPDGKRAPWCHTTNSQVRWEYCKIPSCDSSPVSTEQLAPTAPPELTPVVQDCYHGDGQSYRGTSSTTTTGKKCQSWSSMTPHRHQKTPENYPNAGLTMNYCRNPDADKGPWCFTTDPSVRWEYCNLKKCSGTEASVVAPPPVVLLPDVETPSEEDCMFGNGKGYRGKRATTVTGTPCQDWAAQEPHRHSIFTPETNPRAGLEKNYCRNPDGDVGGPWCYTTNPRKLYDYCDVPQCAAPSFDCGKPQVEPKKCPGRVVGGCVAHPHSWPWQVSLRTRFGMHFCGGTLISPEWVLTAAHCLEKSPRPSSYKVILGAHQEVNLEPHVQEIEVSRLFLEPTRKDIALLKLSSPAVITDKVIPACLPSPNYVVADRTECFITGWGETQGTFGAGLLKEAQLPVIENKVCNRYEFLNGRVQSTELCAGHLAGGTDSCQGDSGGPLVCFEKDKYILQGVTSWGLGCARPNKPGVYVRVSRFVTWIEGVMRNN", "details": "cited from earlier work"}, "HMGB1": {"biological_target": "T1, HMGB1 (Homo sapiens, UniProt P09429)", "T1 sequence (P09429 1-215)": "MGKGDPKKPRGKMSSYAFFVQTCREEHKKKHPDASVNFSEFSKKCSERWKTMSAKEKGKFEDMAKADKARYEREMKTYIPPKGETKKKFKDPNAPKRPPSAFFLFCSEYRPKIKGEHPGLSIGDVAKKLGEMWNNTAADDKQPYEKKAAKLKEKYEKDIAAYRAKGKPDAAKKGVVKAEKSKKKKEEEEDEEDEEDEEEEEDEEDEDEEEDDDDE", "assay": "BIAcore surface plasmon resonance assay of HMGB1-TN interaction", "details": "TN immobilized on CM5 chip, HMGB1 as analyte; read-out: estimated (apparent) Kd of HMGB1 binding to TN", "description": "FIG. 11: BIAcore Surface Plasmon Resonance Assay of HMGB1-TN Interaction. Recombinant TN was immobilized on the sensor chip, and HMGB1 was applied as an analyte at different concentrations. The response units were recorded over time, and the binding affinity was estimated as the apparent Kd.\nEffects of TN supplementation on the sepsis-induced coagulation. This laboratory has recently discovered that some pharmacological agents (e.g., tanshinones) inhibit HMGB1 release by facilitating its internalization into macrophage cytoplasmic vesicles via the clathrin- and caveolin-dependent endocytosis. Similarly, some endogenous proteins (e.g., haptoglobin) can also capture HMGB1 to enhance its cellular uptake through a CD163 receptor-mediated endocytosis. Thus it is determined whether TN can capture HMGB1 and enhance its internalization into macrophages/monocytes. The TN-HMGB1 interaction is investigated by employing the surface plasmon resonance (SPR) technology as previously described. Briefly, the highly purified recombinant TN or HMGB1 is covalently immobilized on a CM5 chip, and HMGB1 or TN is applied to the chip at various concentrations, before the SPR response will be monitored using a BIAcore system as previously described."}, "[2]": {"tested_on": "lethal sepsis (CLP), Balb/C mice", "assay": "Lethal sepsis by cecal ligation and puncture (CLP), survival in mice", "format": "in vivo", "details": "male Balb/C mice, given intraperitoneally, survival monitored more than two weeks", "description": "FIG. 6A-6C: Recombinant TN protected mice against lethal endotoxemia and sepsis. Male Balb/C mice were subjected to lethal endotoxemia (LPS, 5 mg/kg, i.p., Panel A) or sepsis by cecal ligation and puncture (CLP, Panel B, C), and recombinant TN produced in HEK293 (Panel A, B) or E. coli (Panel C) was given intraperitoneally at indicated dosing regimens. Animal survival rates were monitored for more than two weeks to ensure no later death. Shown in Panel B and C is a summary of two independent experiments with similar results.\nFIG. 9: N-terminal deletion TN mutant protected mice against lethal sepsis. Male Balb/C mice were subjected to lethal sepsis by cecal ligation and puncture (CLP), and recombinant deletion mutant (ΔTN) was given intrapeitoneally at indicated dosing regimens. Animal survival rates were monitored for more than two weeks to ensure no later death. Shown was a summary of two independent experiments with similar results.\nFIG. 10: TN peptide agonist (P11) protected mice against lethal sepsis. Male Balb/C mice were subjected to lethal sepsis by cecal ligation and puncture (CLP), and TN peptide agonist, (P11, […]) (SEQ ID NO:11) was given intrapeitoneally at indicated dosing regimens. Animal survival rates were monitored for more than two weeks to ensure no later death. Shown was a summary of two independent experiments with N=8-18 animals per group.\nFIG. 13A-13B: Tetranectin peptide agonists (P2 and P2-M/Nle) protected mice against lethal sepsis. Male Balb/C mice were subjected to lethal sepsis by cecal ligation and puncture (CLP), and TN peptide agonist, P2 (55-KVHMKCFLAFTQTKTF-70) (13A) (SEQ ID NO:2) or P2-M/Nle (54-TKVH(Nle)KSFLAFTQTKT-69) (13B) (SEQ ID NO:13) was given intraperitoneally at indicated dosing regimens. Animal survival rates were monitored for more than two weeks to ensure no later death. Shown was a summary of independent experiment with N=10 animals per group. The Kaplan-Meier method was used to compare the difference in mortality rates between groups. *, P<0.05 versus “CLP+Vehicle” group.\nEffects of TN or peptide agonist on LSI. Balb/C mice (both male and female, 7-8 weeks, 20-25 g) are subjected to lethal endotoxemia or sepsis as described above, and the recombinant TN is injected (i.p.) at various doses and time points (2, 24, and 48 h) after the onset of endotoxemia or sepsis. Their effects on the outcomes of LSI is assessed by comparing the long-term (two-week) survival rates between the TN-treated groups with saline vehicle-treated controls. By varying the time points (e.g., 2, 12, 24 or 36 h) when the first dose of TN will be given to animals, the therapeutic windows for the TN-based therapy is estimated. […] It will be critical to continue these exciting experiments using other dosing regimens to further validate TN's protective role in LSI.\nTo explore the therapeutic potential of the TN-based strategies, the efficacy of TN-specific peptide agonists that would recapitulate the HMGB1-inhibiting capacities is tested using both animal models of lethal endotoxemia and sepsis. A series of peptide agonists have been designed, and chemically synthesized or biologically expressed as recombinant peptide (Table 1, FIG. 7). Peptide agonists will be given to the endotoxemic or septic mice intraperitoneally at various doses and time points after the onset of endotoxemia or sepsis. Their effects on the outcomes of LSI is assessed by comparing the long-term (two-week) survival rates between the peptide agonist groups and the saline vehicle-treated controls.\nTN-specific peptide agonists are tested that would recapitulate the HMGB1-inhibiting capacities using both animal models of lethal endotoxemia and sepsis. Peptide agonists are given to the endotoxemic or septic mice intraperitoneally at various doses and time points after the onset of endotoxemia or sepsis. […]"}}, "note": "Where two headings read alike, the source gives them in different places.", "data": [{"molecule": "tetranectin (protein, listed as Homo sapiens) EPPTQKPKKIVNAKKDVVNTKMFEELKSRLDTLAQEVALLKEQQALQTVCLKGTKVHMKCFLAFTQTKTFHEASEDCISRGGTLGTPQTGSENDALYEYLRQSVGNEAEIWLGLNDMAAEGTWVDMTGARIAYKNWETEITAQPDGGKTENCAVLSGAANGKWFDKRCRDQLPYICQFGIV", "values": [{"measurement": "release of neutrophil-attracting chemokines (CXCL1/GRO-α/KC and CXCL5/ENA-78)", "setting": "[1]", "result": "induced the release"}, {"measurement": "release of neutrophil-attracting chemokines (CXCL1/GRO-α/KC and CXCL5/ENA-78)", "setting": "[1]; listed as Recombinant TN", "result": "specifically induced"}, {"measurement": "release of neutrophil-attracting chemokines (CXCL1/GRO-α/KC and CXCL5/ENA-78)", "setting": "[1]; listed as recombinant TN", "result": "specifically stimulated"}, {"measurement": "Kd", "setting": "plasminogen (PLMG); ref [57], read-out: Kd of calcium-sensitive TN-PLMG interaction", "result": 500, "unit": "nM"}, {"measurement": "Kd", "setting": "plasminogen (PLMG); ref [74], read-out: Kd of TN-PLMG interaction", "result": 500, "unit": "nM"}, {"measurement": "Kd", "setting": "HMGB1", "result": 570, "unit": "nM"}, {"measurement": "protection against lethal sepsis (animal survival)", "setting": "[2]", "result": "significant protection"}, {"measurement": "protection against lethal sepsis (animal survival)", "setting": "[2]; listed as Recombinant TN", "result": "protected"}, {"measurement": "protection against lethal sepsis (animal survival)", "setting": "[2]; listed as recombinant TN", "result": "significant protection"}]}]}
